Results on two molecules are retold here after patent US20070166710A1, “Methods for inhibiting adipogenesis and for treating type 2 diabetes” (priority 2003, published 2007).

Numbering of substitutions follows the chain as printed.

The target in experiment [1] is T1, HA-Akt (human Akt1 fused to an N-terminal HA-tag, expressed from pCMV-HA-Akt) (human, UniProt P31749 1-480).
T1 construct: Expressed in transfected HEK/293 or HepG2 cells; The methods also mention Akt2 for HEK/293 transfections, but pCMV-HA-Akt is defined as HA-Akt1; also called HA-Akt1; pCMV-HA-Akt-1; not shown: N-terminal HA-tag
T1 sequence (P31749 whole entry, the tested form may be a part): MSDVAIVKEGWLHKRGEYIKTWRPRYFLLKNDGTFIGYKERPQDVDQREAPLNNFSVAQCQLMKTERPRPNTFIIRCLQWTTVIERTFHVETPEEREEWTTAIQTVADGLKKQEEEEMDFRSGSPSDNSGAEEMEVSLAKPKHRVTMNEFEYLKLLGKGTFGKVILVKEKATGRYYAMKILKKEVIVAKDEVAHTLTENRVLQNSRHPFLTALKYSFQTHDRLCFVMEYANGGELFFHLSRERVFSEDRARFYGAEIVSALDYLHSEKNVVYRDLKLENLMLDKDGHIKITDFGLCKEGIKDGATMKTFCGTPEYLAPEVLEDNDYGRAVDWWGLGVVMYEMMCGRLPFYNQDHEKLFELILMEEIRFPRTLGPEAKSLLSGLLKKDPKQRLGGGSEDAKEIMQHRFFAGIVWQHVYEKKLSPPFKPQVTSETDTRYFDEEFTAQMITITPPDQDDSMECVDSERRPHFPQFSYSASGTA
The experiment in a line: co-immunoprecipitation from transfected HEK/293 cells (anti-HA IP, Western blot for Foxa-2; the reverse anti-Foxa-2 IP also coprecipitated Akt). For orientation: Immunoblotting shows a protein as a band on a membrane.

The target of experiment [2] is T1, HA-Akt (human Akt1 fused to an …). The experiment in a line: co-immunoprecipitation from transfected HEK/293 cells (anti-HA IP; the reverse anti-Foxa-2 IP gave the same result).

B1: Foxa-2T156A (other, rat, UniProt P32182 1-458, looked up)
chain: MLGAVKMEGHEPSDWSSYYAEPEGYSSVSNMNASLGMNGMNTYMSMSAAAMGSGSGNMSAGSMNMSSYVGAGMSPSLAGMSPGAGAMAGMSGSAGAAGVAGMGPHLSPSLSPLGGQAAGAMGGLAPYANMNSMSPMYGQAGLSRARDPKTYRRSYAHAKPPYSYISLITMAIQQSPNKMLTLSEIYQWIMDLFPFYRQNQQRWQNSIRHSLSFNDFLKVPRAPDKPGKGSFWTLHPDSGNMFENGCYLRRQKRFKCENELALKEAAGAGSGGGKKTAPGTQASQVQLGEAAGSASETPAGTESPHSSASPCQEHKRGGLSELKGTPASALSPPEPAPSPGQQQQAAAHLLGPPHHPGLPPEAHLKPEHHYAFNHPFSINNLMSSEQQHHHSHHHHQPHKMDLKTYEQVMHYPGGYGSPMPGSLAMGPVTNKAGLDASPLAADTSYYQGVYSRPIMNSS
notes: Phosphorylation-deficient mutant; also called TI56A; Foxa-2TI56A
For B1, the binding result in experiment [1] was “binds”.

B2: Foxa-2R153K (other, rat, UniProt P32182 1-458, looked up)
chain: B1 chain with R153K, A156T
Consider B2, for which, in experiment [2], the binding result is reported as “no binding”.
